Measurements from patent US20200055920A1 (published 2020).

Tests used:
Assay in all cases: Biacore SPR; receptor-Fc captured by anti-Fc antibody, ligand injected
BMP9 = molecular target: T1, BMP9 (UniProt Q9UK05 320-429)
T1 construct: also called GDF2
T1 sequence (looked up): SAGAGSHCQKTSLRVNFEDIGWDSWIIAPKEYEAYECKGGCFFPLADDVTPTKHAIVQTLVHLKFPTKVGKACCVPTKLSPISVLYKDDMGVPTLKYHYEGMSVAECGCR
Experimental: (§1) Ligands were injected and allowed to flow over the captured receptor protein.

BMP10 = molecular target: T2, BMP10 (UniProt O95393 317-424)
T2 sequence (looked up): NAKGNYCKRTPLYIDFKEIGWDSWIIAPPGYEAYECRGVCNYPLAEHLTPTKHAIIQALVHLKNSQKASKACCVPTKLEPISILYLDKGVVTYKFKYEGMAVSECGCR

GDF6 = molecular target: T3, GDF6 (UniProt Q6KF10 336-455, limits assumed)
T3 construct: also called BMP13
T3 sequence (looked up): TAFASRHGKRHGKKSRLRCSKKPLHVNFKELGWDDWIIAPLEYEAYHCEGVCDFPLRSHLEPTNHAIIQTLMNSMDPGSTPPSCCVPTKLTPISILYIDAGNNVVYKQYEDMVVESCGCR
Experimental: as §1

GDF5 = molecular target: T4, GDF5 (UniProt P43026 382-501, limits assumed)
T4 construct: also called BMP14
T4 sequence (looked up): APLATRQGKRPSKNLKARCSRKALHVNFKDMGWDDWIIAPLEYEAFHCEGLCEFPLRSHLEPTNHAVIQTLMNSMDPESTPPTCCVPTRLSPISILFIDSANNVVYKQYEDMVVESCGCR
Experimental: as §1

BMP5 = molecular target: T5, BMP5 (UniProt P22003 317-454, limits assumed)
T5 sequence (looked up): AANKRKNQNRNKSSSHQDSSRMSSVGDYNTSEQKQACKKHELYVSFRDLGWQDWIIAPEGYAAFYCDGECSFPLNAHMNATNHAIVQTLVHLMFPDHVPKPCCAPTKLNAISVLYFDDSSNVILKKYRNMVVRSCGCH

GDF7 = molecular target: T6, GDF7 (UniProt Q7Z4P5 322-450, limits assumed)
T6 construct: also called BMP12
T6 sequence (looked up): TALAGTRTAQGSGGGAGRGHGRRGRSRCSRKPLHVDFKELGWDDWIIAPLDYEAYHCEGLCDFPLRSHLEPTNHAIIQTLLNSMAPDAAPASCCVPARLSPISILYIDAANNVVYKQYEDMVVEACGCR

BMP6 = molecular target: T7, BMP6 (UniProt P22004 382-513, limits assumed)
T7 sequence (looked up): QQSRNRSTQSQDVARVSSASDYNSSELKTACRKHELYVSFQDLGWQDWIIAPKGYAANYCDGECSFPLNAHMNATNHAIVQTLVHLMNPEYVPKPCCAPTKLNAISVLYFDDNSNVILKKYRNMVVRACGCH

BMP7 = molecular target: T8, BMP7 (UniProt P18075 293-431)
T8 construct: also called osteogenic protein-1; OP-1
T8 sequence (looked up): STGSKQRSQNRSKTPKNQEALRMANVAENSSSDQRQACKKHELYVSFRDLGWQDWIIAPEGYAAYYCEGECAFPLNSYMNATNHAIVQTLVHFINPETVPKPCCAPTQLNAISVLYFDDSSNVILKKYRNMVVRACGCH

BMP4 = molecular target: T9, BMP4 (UniProt P12644 293-408)
T9 sequence (looked up): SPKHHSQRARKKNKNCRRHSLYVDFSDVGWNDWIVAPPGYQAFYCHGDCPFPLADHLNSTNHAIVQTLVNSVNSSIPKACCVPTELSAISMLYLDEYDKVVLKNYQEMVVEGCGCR

BMP2 = BMP2 (UniProt P12643 283-396)
Chain of BMP2 (P12643 283-396 limits assumed): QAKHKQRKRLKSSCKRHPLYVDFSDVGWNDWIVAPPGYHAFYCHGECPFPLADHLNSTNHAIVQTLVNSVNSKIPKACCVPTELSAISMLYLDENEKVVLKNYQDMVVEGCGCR

GDF11 = molecular target: T10, GDF11 (UniProt O95390 299-407)
T10 construct: also called BMP11
T10 sequence (looked up): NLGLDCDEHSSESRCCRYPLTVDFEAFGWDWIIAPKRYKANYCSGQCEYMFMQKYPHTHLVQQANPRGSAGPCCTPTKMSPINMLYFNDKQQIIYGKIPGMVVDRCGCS
Experimental: as §1

GDF8 = molecular target: T11, GDF8 (UniProt O14793 267-375)
T11 construct: also called myostatin; growth and differentiation factor-8
T11 sequence (looked up): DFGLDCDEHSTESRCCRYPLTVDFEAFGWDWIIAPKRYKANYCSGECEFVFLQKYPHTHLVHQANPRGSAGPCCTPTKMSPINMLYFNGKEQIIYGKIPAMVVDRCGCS
Experimental: as §1

Activin A = molecular target: T12, Activin A (UniProt P08476 311-426)
T12 construct: also called βAβA
T12 sequence (looked up): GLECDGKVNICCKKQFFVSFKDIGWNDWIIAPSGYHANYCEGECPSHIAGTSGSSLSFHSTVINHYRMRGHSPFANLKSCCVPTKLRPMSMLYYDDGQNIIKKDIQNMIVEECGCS
Experimental: as §1

Activin B = molecular target: T13, Activin B (UniProt P09529 293-407)
T13 construct: also called βBβB
T13 sequence (looked up): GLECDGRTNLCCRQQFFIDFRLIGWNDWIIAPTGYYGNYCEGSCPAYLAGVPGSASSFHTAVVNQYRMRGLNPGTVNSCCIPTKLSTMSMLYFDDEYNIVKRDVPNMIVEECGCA
Experimental: as §1

A Kd (BMP9) of 0.016 nM, a koff (BMP9) of 0.00013 s⁻¹ and a kon (BMP9) of 7.9e+06 M⁻¹ s⁻¹ were found for ALK1-Fc homodimer (Fc fusion) in this work. For the same substance, the Kd (BMP10) was 0.006 nM, the koff (BMP10) was 0.00011 s⁻¹ and the kon (BMP10) was 1.7e+07 M⁻¹ s⁻¹.
A Kd (GDF6) of 40 nM, a koff (GDF6) of 0.0013 s⁻¹ and a kon (GDF6) of 34000 M⁻¹ s⁻¹ were found for ALK3-Fc homodimer (Fc fusion) in this work. It also gave a Kd (GDF5) of 22 nM, a koff (GDF5) of 0.011 s⁻¹ and a kon (GDF5) of 480000 M⁻¹ s⁻¹. The Kd (BMP5) was 70 nM, the koff (BMP5) was 0.002 s⁻¹ and the kon (BMP5) was 29000 M⁻¹ s⁻¹. For the same substance, the Kd (GDF7) was 12 nM, the koff (GDF7) was 0.0027 s⁻¹ and the kon (GDF7) was 220000 M⁻¹ s⁻¹. The Kd (BMP6) was 35 nM, the koff (BMP6) was 0.0049 s⁻¹ and the kon (BMP6) was 140000 M⁻¹ s⁻¹. The Kd (BMP7) was 15 nM, the koff (BMP7) was 0.018 s⁻¹ and the kon (BMP7) was 1.2e+06 M⁻¹ s⁻¹. For the same substance, the Kd (BMP4) was 0.178 nM, the koff (BMP4) was 5.3e-05 s⁻¹ and the kon (BMP4) was 300000 M⁻¹ s⁻¹. For the same substance, the Kd (BMP2) was 0.13 nM, the koff (BMP2) was 8.9e-05 s⁻¹ and the kon (BMP2) was 680000 M⁻¹ s⁻¹.
A Kd (GDF11) of 0.028 nM, a koff (GDF11) of 0.00072 s⁻¹ and a kon (GDF11) of 2.6e+07 M⁻¹ s⁻¹ were found for ActRIIA-Fc homodimer (Fc fusion) in this work. It also gave a Kd (GDF8) of 0.099 nM, a koff (GDF8) of 0.0014 s⁻¹ and a kon (GDF8) of 1.4e+07 M⁻¹ s⁻¹. For the same substance, the Kd (Activin A) was 0.045 nM, the koff (Activin A) was 0.00062 s⁻¹ and the kon (Activin A) was 1.4e+07 M⁻¹ s⁻¹. The Kd (Activin B) was 0.025 nM, the koff (Activin B) was 0.0002 s⁻¹ and the kon (Activin B) was 7.9e+06 M⁻¹ s⁻¹. For the same substance, the Kd (BMP5) was 1.1 nM, the koff (BMP5) was 0.0045 s⁻¹ and the kon (BMP5) was 4e+06 M⁻¹ s⁻¹. The Kd (BMP10) was 0.086 nM, the koff (BMP10) was 0.0025 s⁻¹ and the kon (BMP10) was 2.9e+07 M⁻¹ s⁻¹.
